Assay results: publication PMC6614801 (2019)

B1: N-terminally His6-tagged NusA^AR2 (domain or fragment)
chain: DNKPADDLLNLEGVDRDLAFKLAARGVCTLEDLAEQGIDDLADIEGLTDEKAGALIMAARNICWFGDEA

Assays:
Assay in all cases: SPR
[1] = biological target: SuhB^KL251/254AA (E. coli, UniProt P0ADG4 1-267, KL251/254AA | KL251/254AA)
[2] = biological target: SuhB^K108A (E. coli, UniProt P0ADG4 1-267, K108A)
[3] = biological target: B1

| Binder | koff [1] [s⁻¹] | koff [2] [s⁻¹] | koff [3] [s⁻¹] |
| --- | --- | --- | --- |
| B1 | 0.341 | 0.0498 | – |
| SuhB (inositol mono-phosphatase SuhB), wild type (natural protein) MHPMLNIAVRAARKAGNLIAKNYETPDAVEASQKGSNDFVTNVDKAAEAVIIDTIRKSYPQHTIITEESGELEGTDQDVQWVIDPLDGTTNFIKRLPHFAVSIAVRIKGRTEVAVVYDPMRNELFTATRGQGAQLNGYRLRGSTARDLDGTILATGFPFKAKQYATTYINIVGKLFNECADFRRTGSAALDLAYVAAGRVDGFFEIGLRPWDFAAGELLVREAGGIVSDFTGGHNYMLTGNIVAGNPRVVKAMLANMRDELSDALKR | – | – | 0.0555 |
